Measured values from the supplement of paper PMC9876800.

Each substance was assayed on peptide library, one residue held at a place counted from the S/T acceptor (assay: relative phosphorylation of the sub-library (ratio to the mean residue at this position); human; higher = residue favoured). Conditions: H fixed; at -5.
Procedure, shortened: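 In 384-well plates, purified recombinant kinases (human or orthologue constructs) were incubated for 90 min under kinase-specific conditions with 50 μM biotinylated degenerate peptide sub-libraries and 50 μM ATP spiked with γ-32P-ATP. Each sub-library fixed a single residue at one position around a central Ser/Thr. Relative sub-library phosphorylation, measured by phosphorimaging and densitometry of streptavidin membrane spots, is given as a ratio to the mean residue at that position.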

MAP4K5, construct: Full length, sequence (Q9Y4K4 whole entry, looked up): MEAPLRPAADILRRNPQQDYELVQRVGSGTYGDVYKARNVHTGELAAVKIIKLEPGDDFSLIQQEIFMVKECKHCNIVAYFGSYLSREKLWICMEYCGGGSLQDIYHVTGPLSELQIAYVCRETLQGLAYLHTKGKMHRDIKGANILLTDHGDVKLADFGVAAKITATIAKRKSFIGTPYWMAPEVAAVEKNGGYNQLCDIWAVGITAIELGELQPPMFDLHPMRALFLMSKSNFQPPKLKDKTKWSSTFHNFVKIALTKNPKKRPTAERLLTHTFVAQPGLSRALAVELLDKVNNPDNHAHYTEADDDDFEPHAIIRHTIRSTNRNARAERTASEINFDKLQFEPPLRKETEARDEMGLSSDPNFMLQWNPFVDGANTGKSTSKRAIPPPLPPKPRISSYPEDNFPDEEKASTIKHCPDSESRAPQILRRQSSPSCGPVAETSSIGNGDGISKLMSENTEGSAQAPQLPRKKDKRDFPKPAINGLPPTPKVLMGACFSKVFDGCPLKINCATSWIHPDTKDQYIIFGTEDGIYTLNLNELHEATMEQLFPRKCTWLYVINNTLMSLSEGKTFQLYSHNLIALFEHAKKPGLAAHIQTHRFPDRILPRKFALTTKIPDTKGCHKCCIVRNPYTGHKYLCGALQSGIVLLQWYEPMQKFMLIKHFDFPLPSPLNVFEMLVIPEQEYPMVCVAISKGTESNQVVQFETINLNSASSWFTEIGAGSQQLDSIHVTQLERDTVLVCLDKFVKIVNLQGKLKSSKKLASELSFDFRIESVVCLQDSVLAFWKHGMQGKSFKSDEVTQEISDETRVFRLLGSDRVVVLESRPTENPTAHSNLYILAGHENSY
SIK3, construct: aa1-307, sequence (Q9Y2K2 1-307, looked up): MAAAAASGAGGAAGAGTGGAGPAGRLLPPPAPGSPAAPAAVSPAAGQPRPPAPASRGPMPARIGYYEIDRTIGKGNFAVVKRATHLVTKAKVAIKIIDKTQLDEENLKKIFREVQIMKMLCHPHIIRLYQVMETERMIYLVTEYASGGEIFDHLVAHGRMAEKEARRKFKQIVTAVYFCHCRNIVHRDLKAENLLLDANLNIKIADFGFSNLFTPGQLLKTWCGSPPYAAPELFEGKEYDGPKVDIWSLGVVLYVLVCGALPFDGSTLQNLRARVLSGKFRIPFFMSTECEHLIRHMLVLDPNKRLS
NEK6, construct: Full length, sequence (Q9HC98 whole entry, looked up): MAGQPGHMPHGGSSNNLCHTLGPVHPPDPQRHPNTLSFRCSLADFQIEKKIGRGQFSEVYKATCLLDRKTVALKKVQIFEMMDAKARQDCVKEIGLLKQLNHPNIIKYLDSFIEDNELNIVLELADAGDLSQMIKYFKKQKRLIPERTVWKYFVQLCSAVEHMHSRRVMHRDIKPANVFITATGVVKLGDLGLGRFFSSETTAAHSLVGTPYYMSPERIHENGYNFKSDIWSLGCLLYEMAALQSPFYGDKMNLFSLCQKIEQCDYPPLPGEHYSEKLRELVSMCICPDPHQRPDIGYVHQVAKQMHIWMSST
SLK, construct: Full length, sequence (Q9H2G2 whole entry, looked up): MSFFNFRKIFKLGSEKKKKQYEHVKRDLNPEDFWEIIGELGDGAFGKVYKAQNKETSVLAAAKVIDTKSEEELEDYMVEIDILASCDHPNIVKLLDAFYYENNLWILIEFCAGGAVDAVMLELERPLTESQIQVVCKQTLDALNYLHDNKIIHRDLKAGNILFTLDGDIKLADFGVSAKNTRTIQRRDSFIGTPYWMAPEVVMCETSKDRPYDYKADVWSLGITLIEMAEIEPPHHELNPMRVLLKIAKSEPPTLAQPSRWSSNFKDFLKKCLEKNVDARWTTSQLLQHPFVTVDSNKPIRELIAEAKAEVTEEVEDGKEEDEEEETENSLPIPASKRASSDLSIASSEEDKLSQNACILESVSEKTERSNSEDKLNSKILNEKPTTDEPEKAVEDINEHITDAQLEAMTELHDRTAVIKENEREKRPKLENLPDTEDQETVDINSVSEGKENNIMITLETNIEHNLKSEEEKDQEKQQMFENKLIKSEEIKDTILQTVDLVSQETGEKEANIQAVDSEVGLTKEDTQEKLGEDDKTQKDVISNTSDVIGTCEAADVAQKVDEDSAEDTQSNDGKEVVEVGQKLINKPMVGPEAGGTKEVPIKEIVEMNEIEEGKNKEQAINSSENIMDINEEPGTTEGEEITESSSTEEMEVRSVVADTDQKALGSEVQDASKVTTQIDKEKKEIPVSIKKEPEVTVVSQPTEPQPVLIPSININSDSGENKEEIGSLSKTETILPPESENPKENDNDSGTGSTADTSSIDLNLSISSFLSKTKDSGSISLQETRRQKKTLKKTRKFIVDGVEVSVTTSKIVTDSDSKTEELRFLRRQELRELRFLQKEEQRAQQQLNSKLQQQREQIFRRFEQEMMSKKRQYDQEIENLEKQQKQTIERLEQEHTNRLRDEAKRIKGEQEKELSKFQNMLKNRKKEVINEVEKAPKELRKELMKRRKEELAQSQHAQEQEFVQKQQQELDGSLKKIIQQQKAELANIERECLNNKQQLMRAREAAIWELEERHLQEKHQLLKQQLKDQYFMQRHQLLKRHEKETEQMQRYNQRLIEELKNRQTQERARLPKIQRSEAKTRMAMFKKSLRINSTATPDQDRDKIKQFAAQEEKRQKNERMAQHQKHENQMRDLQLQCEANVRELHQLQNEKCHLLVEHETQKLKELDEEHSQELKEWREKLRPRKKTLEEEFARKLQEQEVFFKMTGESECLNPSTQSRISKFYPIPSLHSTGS
IKBKE, construct: Full length, sequence (Q14164 whole entry, looked up): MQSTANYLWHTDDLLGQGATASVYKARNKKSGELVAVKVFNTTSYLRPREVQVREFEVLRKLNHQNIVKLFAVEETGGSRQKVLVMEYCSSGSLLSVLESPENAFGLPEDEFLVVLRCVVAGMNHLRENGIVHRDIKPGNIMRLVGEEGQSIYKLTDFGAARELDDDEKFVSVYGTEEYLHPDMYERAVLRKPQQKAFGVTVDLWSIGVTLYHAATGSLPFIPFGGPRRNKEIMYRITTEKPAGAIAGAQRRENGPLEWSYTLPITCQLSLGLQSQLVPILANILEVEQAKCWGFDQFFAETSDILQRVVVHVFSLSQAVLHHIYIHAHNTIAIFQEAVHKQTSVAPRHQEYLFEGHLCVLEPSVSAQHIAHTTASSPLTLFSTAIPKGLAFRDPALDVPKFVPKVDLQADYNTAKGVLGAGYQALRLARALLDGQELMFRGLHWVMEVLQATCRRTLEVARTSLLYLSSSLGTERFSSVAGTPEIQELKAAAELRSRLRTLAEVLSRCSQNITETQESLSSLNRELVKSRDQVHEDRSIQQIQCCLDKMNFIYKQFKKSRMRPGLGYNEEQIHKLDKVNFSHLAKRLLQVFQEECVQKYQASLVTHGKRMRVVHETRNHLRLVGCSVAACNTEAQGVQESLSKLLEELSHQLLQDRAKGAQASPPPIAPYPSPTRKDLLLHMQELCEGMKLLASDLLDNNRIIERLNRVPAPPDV
TNIK, construct: aa1-314, sequence (Q9UKE5 1-314, looked up): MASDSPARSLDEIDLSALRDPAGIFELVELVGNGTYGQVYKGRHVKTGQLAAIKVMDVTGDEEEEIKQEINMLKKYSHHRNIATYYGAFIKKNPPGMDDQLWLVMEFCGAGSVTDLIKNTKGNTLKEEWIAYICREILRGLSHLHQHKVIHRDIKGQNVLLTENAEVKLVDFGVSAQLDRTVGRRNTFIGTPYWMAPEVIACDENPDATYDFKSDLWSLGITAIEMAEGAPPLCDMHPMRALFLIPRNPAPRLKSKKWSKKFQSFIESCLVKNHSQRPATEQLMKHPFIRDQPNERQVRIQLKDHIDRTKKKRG
CDK10, construct: Full length, sequence (Q15131 whole entry, looked up): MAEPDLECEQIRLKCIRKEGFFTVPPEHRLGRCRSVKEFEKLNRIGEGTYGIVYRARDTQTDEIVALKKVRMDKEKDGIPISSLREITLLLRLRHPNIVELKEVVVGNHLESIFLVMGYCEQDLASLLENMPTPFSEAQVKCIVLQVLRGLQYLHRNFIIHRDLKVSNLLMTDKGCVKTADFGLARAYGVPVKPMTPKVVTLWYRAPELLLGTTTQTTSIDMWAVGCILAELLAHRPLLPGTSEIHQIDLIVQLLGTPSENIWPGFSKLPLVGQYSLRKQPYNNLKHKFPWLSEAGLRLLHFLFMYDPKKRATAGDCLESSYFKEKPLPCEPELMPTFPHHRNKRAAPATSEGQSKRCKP

| Substance | relative phosphorylation |
| --- | --- |
| NEK6, construct: Full length (from UniProt Q9HC98) | 0.979 |
| SIK3, construct: aa1-307 (from UniProt Q9Y2K2) | 0.856 |
| TNIK, construct: aa1-314 (from UniProt Q9UKE5) | 1.02 |
| SLK, construct: Full length (from UniProt Q9H2G2) | 1.2 |
| CDK10, construct: Full length (from UniProt Q15131) | 1.08 |

Same assay, conditions: I fixed; at +1

| Substance | relative phosphorylation |
| --- | --- |
| PKN2, construct: aa501-984 (from UniProt Q16513) | 1.34 |
| IKBKE, construct: Full length (from UniProt Q14164) | 2.51 |
| MAP4K5, construct: Full length (from UniProt Q9Y4K4) | 1.89 |
| NEK6, construct: Full length (from UniProt Q9HC98) | 0.646 |
| SIK3, construct: aa1-307 (from UniProt Q9Y2K2) | 1.12 |
| TNIK, construct: aa1-314 (from UniProt Q9UKE5) | 1.49 |
| SLK, construct: Full length (from UniProt Q9H2G2) | 1.39 |
| CDK10, construct: Full length (from UniProt Q15131) | 0.282 |

Same assay, conditions: I fixed; at +2

| Substance | relative phosphorylation |
| --- | --- |
| PKN2, construct: aa501-984 (from UniProt Q16513) | 0.836 |
| IKBKE, construct: Full length (from UniProt Q14164) | 1.06 |
| MAP4K5, construct: Full length (from UniProt Q9Y4K4) | 0.373 |
| NEK6, construct: Full length (from UniProt Q9HC98) | 0.568 |
| SIK3, construct: aa1-307 (from UniProt Q9Y2K2) | 0.923 |
| TNIK, construct: aa1-314 (from UniProt Q9UKE5) | 0.459 |
| SLK, construct: Full length (from UniProt Q9H2G2) | 0.349 |
| CDK10, construct: Full length (from UniProt Q15131) | 0.598 |

Same assay, conditions: I fixed; at +3

| Substance | relative phosphorylation |
| --- | --- |
| PKN2, construct: aa501-984 (from UniProt Q16513) | 0.888 |
| IKBKE, construct: Full length (from UniProt Q14164) | 0.853 |
| MAP4K5, construct: Full length (from UniProt Q9Y4K4) | 0.468 |
| NEK6, construct: Full length (from UniProt Q9HC98) | 0.537 |
| SIK3, construct: aa1-307 (from UniProt Q9Y2K2) | 0.555 |
| TNIK, construct: aa1-314 (from UniProt Q9UKE5) | 0.381 |
| SLK, construct: Full length (from UniProt Q9H2G2) | 0.454 |
| CDK10, construct: Full length (from UniProt Q15131) | 0.67 |

Same assay, conditions: I fixed; at +4

| Substance | relative phosphorylation |
| --- | --- |
| PKN2, construct: aa501-984 (from UniProt Q16513) | 0.877 |
| IKBKE, construct: Full length (from UniProt Q14164) | 0.964 |
| MAP4K5, construct: Full length (from UniProt Q9Y4K4) | 0.709 |
| NEK6, construct: Full length (from UniProt Q9HC98) | 0.616 |
| SIK3, construct: aa1-307 (from UniProt Q9Y2K2) | 2.59 |
| TNIK, construct: aa1-314 (from UniProt Q9UKE5) | 0.593 |
| SLK, construct: Full length (from UniProt Q9H2G2) | 0.648 |
| CDK10, construct: Full length (from UniProt Q15131) | 0.655 |

Same assay, conditions: I fixed; at -1

| Substance | relative phosphorylation |
| --- | --- |
| PKN2, construct: aa501-984 (from UniProt Q16513) | 0.514 |
| IKBKE, construct: Full length (from UniProt Q14164) | 0.899 |
| MAP4K5, construct: Full length (from UniProt Q9Y4K4) | 0.294 |
| NEK6, construct: Full length (from UniProt Q9HC98) | 0.434 |
| SIK3, construct: aa1-307 (from UniProt Q9Y2K2) | 0.364 |
| TNIK, construct: aa1-314 (from UniProt Q9UKE5) | 0.326 |
| SLK, construct: Full length (from UniProt Q9H2G2) | 0.287 |
| CDK10, construct: Full length (from UniProt Q15131) | 0.284 |

Same assay, conditions: I fixed; at -2

| Substance | relative phosphorylation |
| --- | --- |
| PKN2, construct: aa501-984 (from UniProt Q16513) | 0.569 |
| IKBKE, construct: Full length (from UniProt Q14164) | 0.528 |
| MAP4K5, construct: Full length (from UniProt Q9Y4K4) | 0.645 |
| NEK6, construct: Full length (from UniProt Q9HC98) | 0.425 |
| SIK3, construct: aa1-307 (from UniProt Q9Y2K2) | 0.507 |
| TNIK, construct: aa1-314 (from UniProt Q9UKE5) | 0.689 |
| SLK, construct: Full length (from UniProt Q9H2G2) | 0.263 |
| CDK10, construct: Full length (from UniProt Q15131) | 0.724 |

Same assay, conditions: I fixed; at -3

| Substance | relative phosphorylation |
| --- | --- |
| PKN2, construct: aa501-984 (from UniProt Q16513) | 0.514 |
| IKBKE, construct: Full length (from UniProt Q14164) | 0.632 |
| MAP4K5, construct: Full length (from UniProt Q9Y4K4) | 0.528 |
| NEK6, construct: Full length (from UniProt Q9HC98) | 0.495 |
| SIK3, construct: aa1-307 (from UniProt Q9Y2K2) | 0.399 |
| TNIK, construct: aa1-314 (from UniProt Q9UKE5) | 0.701 |
| SLK, construct: Full length (from UniProt Q9H2G2) | 0.314 |
| CDK10, construct: Full length (from UniProt Q15131) | 0.722 |

Same assay, conditions: I fixed; at -4

| Substance | relative phosphorylation |
| --- | --- |
| PKN2, construct: aa501-984 (from UniProt Q16513) | 0.861 |
| IKBKE, construct: Full length (from UniProt Q14164) | 0.796 |
| MAP4K5, construct: Full length (from UniProt Q9Y4K4) | 0.684 |
| NEK6, construct: Full length (from UniProt Q9HC98) | 0.531 |
| SIK3, construct: aa1-307 (from UniProt Q9Y2K2) | 0.637 |
| TNIK, construct: aa1-314 (from UniProt Q9UKE5) | 0.73 |
| SLK, construct: Full length (from UniProt Q9H2G2) | 0.6 |
| CDK10, construct: Full length (from UniProt Q15131) | 0.652 |

Same assay, conditions: I fixed; at -5

| Substance | relative phosphorylation |
| --- | --- |
| PKN2, construct: aa501-984 (from UniProt Q16513) | 1.45 |
| IKBKE, construct: Full length (from UniProt Q14164) | 0.742 |
| MAP4K5, construct: Full length (from UniProt Q9Y4K4) | 0.66 |
| NEK6, construct: Full length (from UniProt Q9HC98) | 0.632 |
| SIK3, construct: aa1-307 (from UniProt Q9Y2K2) | 0.861 |
| TNIK, construct: aa1-314 (from UniProt Q9UKE5) | 0.724 |
| SLK, construct: Full length (from UniProt Q9H2G2) | 0.552 |
| CDK10, construct: Full length (from UniProt Q15131) | 0.713 |

Same assay, conditions: K fixed; at +1

| Substance | relative phosphorylation |
| --- | --- |
| PKN2, construct: aa501-984 (from UniProt Q16513) | 1.33 |
| IKBKE, construct: Full length (from UniProt Q14164) | 0.219 |
| MAP4K5, construct: Full length (from UniProt Q9Y4K4) | 0.599 |
| NEK6, construct: Full length (from UniProt Q9HC98) | 0.65 |
| SIK3, construct: aa1-307 (from UniProt Q9Y2K2) | 0.88 |
| TNIK, construct: aa1-314 (from UniProt Q9UKE5) | 1.08 |
| SLK, construct: Full length (from UniProt Q9H2G2) | 1.24 |
| CDK10, construct: Full length (from UniProt Q15131) | 0.397 |

Same assay, conditions: K fixed; at +2

| Substance | relative phosphorylation |
| --- | --- |
| PKN2, construct: aa501-984 (from UniProt Q16513) | 2.49 |
